One data set addresses T1, AARS1^455 (Homo sapiens, UniProt P49588).
T1 construct: catalytic domain, residues 1-455, purified recombinant; tags and host only in supplement
T1 sequence (P49588 1-455): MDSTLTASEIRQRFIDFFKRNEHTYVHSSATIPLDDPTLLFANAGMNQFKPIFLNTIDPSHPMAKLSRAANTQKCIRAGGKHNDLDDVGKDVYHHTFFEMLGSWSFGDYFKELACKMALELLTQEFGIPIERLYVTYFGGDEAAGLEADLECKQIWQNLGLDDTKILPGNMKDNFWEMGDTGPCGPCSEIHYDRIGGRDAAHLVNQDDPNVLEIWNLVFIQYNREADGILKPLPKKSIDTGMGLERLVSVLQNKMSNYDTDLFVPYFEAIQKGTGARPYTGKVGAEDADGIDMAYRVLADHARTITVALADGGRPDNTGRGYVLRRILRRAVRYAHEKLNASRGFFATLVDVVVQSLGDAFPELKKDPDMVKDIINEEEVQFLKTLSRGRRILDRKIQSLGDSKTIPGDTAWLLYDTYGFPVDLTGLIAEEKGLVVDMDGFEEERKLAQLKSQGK
As to the kind of experiment: in vitro histone lactylation, pan-Klac immunoblot / mass spectrometry. The data set is classed as biochemical. Particulars: lactate and ATP present; dose-dependent; construct in Supplemental Figure 1F not told. On the technique in general: In western blotting, separated proteins are transferred to a membrane and probed.

The target in the next data set is TEAD1;YAP (1-291) (human?;human?, UniProt P28347;P46937 1-426;1-291, |). As to the kind of experiment: EMSA; supershift of probe by YAP-TEAD1; 10 mM Tris-HCl pH 7.5, 50 mM KCl, 1 mM DTT, 2% glycerol, 25 C, 1 h. Particulars: protein: recombinant;recombinant; (HS-TEAD1 in pull-down); copies: 1;1. In general terms: Mobility shift assays separate free from complexed probe on a gel.

For the next data set, the target named is YAP (1-291) (UniProt P46937 1-291). Nature of the data set: EMSA; YAP alone; 10 mM Tris-HCl pH 7.5, 50 mM KCl, 1 mM DTT, 2% glycerol, 25 C, 1 h. Conditions: protein: recombinant; tags: MBP.
A further data set addresses TEAD1 (UniProt P28347 1-426). As to the kind of experiment: EMSA; 10 mM Tris-HCl pH 7.5, 50 mM KCl, 1 mM DTT, 2% glycerol, 25 C, 1 h. Conditions: protein: recombinant; (HS-TEAD1 in pull-down).

Sequence of TEAD1 (P28347 whole entry): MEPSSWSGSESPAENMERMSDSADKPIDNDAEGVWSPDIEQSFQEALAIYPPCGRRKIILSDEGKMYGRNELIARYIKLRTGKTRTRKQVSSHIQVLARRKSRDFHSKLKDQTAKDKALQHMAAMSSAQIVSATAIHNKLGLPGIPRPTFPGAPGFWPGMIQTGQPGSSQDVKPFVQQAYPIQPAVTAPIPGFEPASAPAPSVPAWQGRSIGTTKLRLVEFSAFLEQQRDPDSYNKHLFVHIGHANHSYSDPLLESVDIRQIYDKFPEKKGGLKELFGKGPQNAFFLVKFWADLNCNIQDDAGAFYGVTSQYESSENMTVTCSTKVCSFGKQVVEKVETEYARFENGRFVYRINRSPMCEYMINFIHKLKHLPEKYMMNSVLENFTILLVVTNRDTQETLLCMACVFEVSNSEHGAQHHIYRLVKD

As for `Nc1ncnc2c1ncn2[C@@H]1O[C@H](COP(=O)(O)O)[C@@H](O)[C@H]1O` [AMP], at AARS1^455, the inhibition result is “inclusion of PPi, AMP, and the synthetic lactyl-AMS”.

For `O=P(O)(O)OP(=O)(O)O` [PPi], the inhibition entry on AARS1^455 was “inclusion of PPi, AMP, and the synthetic lactyl-AMS”.

B1: AARS1 promoter probe (dsDNA)
DNA 1: CAGACAGGGCCTCGCTCTGTCGCCCAAGGAATGCAGTGTCACGATCAGGGCTCACTGCAG
DNA 2: CTGCAGTGAGCCCTGATCGTGACACTGCATTCCTTGGGCGACAGAGCGAGGCCCTGTCTG
For the molecule B1, the binding result in the data set with TEAD1;YAP (1-291) was “binds”; with YAP (1-291) it was “no binding”; with TEAD1, “binds”.

Source of the values: paper PMC11093599 (The Journal of Clinical Investigation, 2024).
